Paper PMC5863767, “Mps1 Phosphorylates Its N-Terminal Extension to Relieve Autoinhibition and Activate the Spindle Assembly Checkpoint” (Current Biology, 2018)

Target: the molecule itself
Test: cross-linking; BS3 cross-linking of purified GST-Mps1 (10:1 protein:BS3, 2 h on ice; 50 mM HEPES pH 7.5, 250 mM KCl, 0.05% NP-40, 1 mM DTT), NATIVE-PAGE, bands of cross-linked dimers excised, cross-linked peptides identified by mass spectrometry

Protein | binding result
GST-Mps1-WT (enzyme, human, UniProt P33981 1-857, looked up, Mps1 kinase, human, wild type, full-length polypeptide; also called active Mps1; source: baculovirus-infected Sf9 cells, purified (glutathione-agarose, eluted with glutathione)) MESEDLSGRELTIDSIMNKVRDIKNKFKNEDLTDELSLNKISADTTDNSGTVNQIMMMANNPEDWLSLLLKLEKNSVPLSDALLNKLIGRYSQAIEALPPDKYGQNESFARIQVRFAELKAIQEPDDARDYFQMARANCKKFAFVHISFAQFELSQGNVKKSKQLLQKAVERGAVPLEMLEIALRNLNLQKKQLLSEEEKKNLSASTVLTAQESFSGSLGHLQNRNNSCDSRGQTTKARFLYGENMPPQDAEIGYRNSLRQTNKTKQSCPFGRVPVNLLNSPDCDVKTDDSVVPCFMKRQTSRSECRDLVVPGSKPSGNDSCELRNLKSVQNSHFKEPLVSDEKSSELIITDSITLKNKTESSLLAKLEETKEYQEPEVPESNQKQWQSKRKSECINQNPAASSNHWQIPELARKVNTEQKHTTFEQPVFSVSKQSPPISTSKWFDPKSICKTPSSNTLDDYMSCFRTPVVKNDFPPACQLSTPYGQPACFQQQQHQILATPLQNLQVLASSSANECISVKGRIYSILKQIGSGGSSKVFQVLNEKKQIYAIKYVNLEEADNQTLDSYRNEIAYLNKLQQHSDKIIRLYDYEITDQYIYMVMECGNIDLNSWLKKKKSIDPWERKSYWKNMLEAVHTIHQHGIVHSDLKPANFLIVDGMLKLIDFGIANQMQPDTTSVVKDSQVGTVNYMPPEAIKDMSSSRENGKSKSKISPKSDVWSLGCILYYMTYGKTPFQQIINQISKLHAIIDPNHEIEFPDIPEKDLQDVLKCCLKRDPKQRISIPELLAHPYVQIQTHPVNQMAKGTTEEMKYVLGQLVGLNSPNSILKAAKTLYEHYSGGESHNSSSSKTFEKKRGKK | binds
GST-Mps1-KD (enzyme, human, UniProt P33981 1-857, looked up, Mps1 kinase, human, kinase-dead, full-length polypeptide; also called kinase-dead (D664A); source: baculovirus-infected Sf9 cells, purified (glutathione-agarose, eluted with glutathione)) MESEDLSGRELTIDSIMNKVRDIKNKFKNEDLTDELSLNKISADTTDNSGTVNQIMMMANNPEDWLSLLLKLEKNSVPLSDALLNKLIGRYSQAIEALPPDKYGQNESFARIQVRFAELKAIQEPDDARDYFQMARANCKKFAFVHISFAQFELSQGNVKKSKQLLQKAVERGAVPLEMLEIALRNLNLQKKQLLSEEEKKNLSASTVLTAQESFSGSLGHLQNRNNSCDSRGQTTKARFLYGENMPPQDAEIGYRNSLRQTNKTKQSCPFGRVPVNLLNSPDCDVKTDDSVVPCFMKRQTSRSECRDLVVPGSKPSGNDSCELRNLKSVQNSHFKEPLVSDEKSSELIITDSITLKNKTESSLLAKLEETKEYQEPEVPESNQKQWQSKRKSECINQNPAASSNHWQIPELARKVNTEQKHTTFEQPVFSVSKQSPPISTSKWFDPKSICKTPSSNTLDDYMSCFRTPVVKNDFPPACQLSTPYGQPACFQQQQHQILATPLQNLQVLASSSANECISVKGRIYSILKQIGSGGSSKVFQVLNEKKQIYAIKYVNLEEADNQTLDSYRNEIAYLNKLQQHSDKIIRLYDYEITDQYIYMVMECGNIDLNSWLKKKKSIDPWERKSYWKNMLEAVHTIHQHGIVHSDLKPANFLIVDGMLKLIAFGIANQMQPDTTSVVKDSQVGTVNYMPPEAIKDMSSSRENGKSKSKISPKSDVWSLGCILYYMTYGKTPFQQIINQISKLHAIIDPNHEIEFPDIPEKDLQDVLKCCLKRDPKQRISIPELLAHPYVQIQTHPVNQMAKGTTEEMKYVLGQLVGLNSPNSILKAAKTLYEHYSGGESHNSSSSKTFEKKRGKK | binds
